Assay results from the supplement of paper PMC9170038.

System: MS2 coat protein
Assay: apparent KD of MS2 coat protein; designed switch direction (-1 OFF switch, 1 ON switch): 1; higher = weaker reporter binding
How it was run: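 Normalised cluster fluorescence was curve-fitted, and each design's median over clusters is its apparent KD. Before this, SNAP-549-labelled MS2 coat protein was titrated from 0.7 or 1.5 nM, doubling to 3 µM, over RNA switches transcribed on Illumina chips by stalled E. coli RNA polymerase. Titrations had no input, 200 uM small-molecule ligand, or an oligonucleotide input, and steps lasted 0.8–1.5 h (lowest) to 10–20 min (highest).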

[1] = Eterna round: R95, input ligand: FMN 200 uM
[2] = Eterna round: R95, input ligand: microRNA oligo, concentration not stated
[3] = Eterna round: R95, input ligand: none
[4] = input ligand: microRNA oligo, concentration not stated

Sequence | apparent KD of MS2 coat protein [1] [nM] | apparent KD of MS2 coat protein [2] [nM] | apparent KD of MS2 coat protein [3] [nM] | apparent KD of MS2 coat protein (input ligand: FMN 200 uM) [nM] | apparent KD of MS2 coat protein [4] [nM] | apparent KD of MS2 coat protein (input ligand: none) [nM]
GGUCCGGCCUGAGCUGGACCGAGGCAUGUACAUGAGGAUCACCCAUGUUCAUGUGCAGGCUUUUUGCUCGUCUUGUG [JL-shm-2.06 JL mod] (puzzle: Sensor for hsa-mir-208a) | 49.6 | 11 | 50.6 | – | – | –
GGUCGAAACCACAUGAGGAUCACCCAUGUUCCGGAAACGGCGCAGGAUAUCUGUCCGAAAAGGUCAGAGAAGGGUGAAACGACC [Fiskers NG3ss - 79] (Eterna round: R96, puzzle: Same State NG 3) | – | – | – | 546 | 699 | 944
GGUCGGACAUGAGGAUCACCCAUGUGGUGACCGGAAACGGCAUAGGAUAUCUGUCCGAAAAGGUCAGAGAAGGGUGAACCGACC [Fiskers NG3ss - 69] (Eterna round: R96, puzzle: Same State NG 3) | – | – | – | 160 | 15.5 | 126
GGUGCAAUAAACGCCUACAUGAGGAUCACCCAUGUAUGUAGGCAGGAUAUCGUAUGCAAAGCAUACGAGAAGGGCUAUAGUACC [Mat - Same State NG 3 - JL Mod - D45] (Eterna round: R96, puzzle: Same State NG 3) | – | – | – | 57.1 | 124 | 146
GGUGCAAUAAACGCCUACAUGAGGAUCACCCAUGUAUGUAGGCAGGAUAUCGUAUGCAAAGCAUACGAGAAGGGCUGUAGUACC [Mat - Same State NG 3 - JL Mod - D42] (Eterna round: R96, puzzle: Same State NG 3) | – | – | – | 53.7 | 116 | 118
GGUGCAAUUAACGCCUACAUGAGGAUCACCCAUGUAUGUAGGCAGGAUAUCGUUUGCUUUGCAAACGAGAAGGGCUGUAGUACC [JL SSNG3 1.14] (Eterna round: R96, puzzle: Same State NG 3) | – | – | – | 35.6 | 89.3 | 84.5
GGUGGGUUGCUGCCGGCACAUGAGGAUCACCCAUGUUUUGGGAAGGAUAUGGUACCUUUUUGGUGCCAGAAGGUCCCGUUGGUG [salish99_SSNG3_r04_712 large U pivot] (Eterna round: R96, puzzle: Same State NG 3) | – | – | – | – | 350 | –
GGUUUAGUCAGGUACAGUUGCACCUGAAAACAUGAGGAUCACCCAUGUUUGGGACAAGCUUUGCUCCUCGUCUUGCC [Ralausen] (puzzle: Sensor for hsa-mir-208a) | 101 | 77.6 | 152 | – | – | –
GGUUUAGUCGAGUACCGUUCCACUCGAAAACAUGAGGAUCACCCAUGUUUGGGACAAGCUUUGCUCCUCGUCUUUCC [Inardiza] (puzzle: Sensor for hsa-mir-208a) | 29.6 | 64.8 | 36.6 | – | – | –
GUAAAGAAUUAAGGAUAUUGAAUACAUAUGUUUAACAUGAGGAUCACCCAUGUGGGUUGCGGUAUCGAGAAGGUAAAAUAAAAG [Mat - Same State NG 2 - JL mod - D7] (Eterna round: R96, puzzle: Same State NG 2) | – | – | – | 137 | 105 | 124
GUAAAGAAUUAAGGAUAUUGAUUACAUAUGUUUAACAUGAGGAUCACCCAUGUGGGUUGCGGUAUCGAGAAGGUAAAAUAAUAG [Mat - same State NG 2 - JL mod - D86] (Eterna round: R96, puzzle: Same State NG 2) | – | – | – | 190 | 131 | 174
GUAAGUUUGAUGCUCGUCUCUCCGUACAAACAUGAGGAUCACCCAUGUGGUCGGGAAGUAGCCCGGCCAGUAUGGCC [Rerire] (puzzle: Sensor for hsa-mir-208a) | 24.8 | 21.4 | 26.8 | – | – | –
GUAAUACAUGAGGAUCACCCAUGUCAAUGUAGUCGAGGAUAUGGGUAGCUAUGAGGCGUUCUAGAAGGCGACGAGC [Same State 1 - Mod of Vinnie Teenbexe v.3] (puzzle: Same State 1) | 273 | 151 | 52.2 | – | – | –
GUAAUCGUUAUAGGAUAUCAUGAGGAUUACCCAUGAGAAGGGUGAUUCCGAUCCAUAUUCAGAAAAUGAAUGUGGAUAGAUUGC [Omei NG1 A v1] (Eterna round: R96, puzzle: Same State NG 1) | – | – | – | 123 | 117 | 260
GUACAAAUCAUAGGAUAUGGGCGGGAAUGCCGUCCAGAAGGAUGAACAUGAGGAUCACCCAUGUCCGGCCACAAAUACGCGGCC [Bientela] (Eterna round: R96, puzzle: Same State NG 1) | – | – | – | 72.3 | 104 | 161
GUACAGAUUAUAGGAUAUCACGUCGAAUAGACGUGAGAAGGAUAAUCACACAUGAAUAUUAAUACAUGAGGAUCACCCAUGUAC [SSNG1/17-A1] (Eterna round: R96, puzzle: Same State NG 1) | – | – | – | 16.7 | 12.9 | 17.1
GUACAUAUCAGAGGAUAUCACGUCGAUUAGACGUGAGAAGGCUGAUCACACAUGAAUAUUAAUACAUGAGGAUCACCCAUGUAC [SSNG1/13-A2] (Eterna round: R96, puzzle: Same State NG 1) | – | – | – | 16.9 | 28.5 | 37.2
GUACUACAUGAGGAUCACCCAUGUUACCUUCACGGAGGAUAUAGGAAAUGAGGUGAGAUGCUAGAAGGCCGAGGAA [Candy Rainbow 4] (puzzle: Same State 1) | 102 | 78.3 | 95.9 | – | – | –
GUAGAAUAACUAGAGGAUAUCCGAGUGGUAACAUGAGGAUCACCCAUGUGAUGAAAGGAACAUGAGGAGAAGGCUAGAAGUAAUG [Mat - Same State 2 - Mod of JL - D81] (puzzle: Same State 2) | 17.5 | 61.1 | 48.1 | – | – | –
GUAGAUAUAACGCAGGAUAUUCAAUGAGAGACAUGAGGAUCACCCAUGUGAGAGUGAGAUGAUAGGAAGAAGGGUGAGAGAGAUG [Altered State 2-8 - Jieux - Same State 2] (puzzle: Same State 2) | 107 | 124 | 122 | – | – | –
GUAGCAUACCGAGGAUAUUCAACAUGAGGAUCACCCAUGUGUUUGUUAUAGGCCAAAAGGCCUUGGGAGAAGGCGGAAUGCUAC [Xeonanis - 20 Mod16] (Eterna round: R96, puzzle: Same State NG 2) | – | – | – | 9.03 | 9.65 | 12.9
GUAGCAUACCGAGGAUAUUCAUAUUAACAUGAGGAUCACCCAUGUAUUUAGGCCAAAAGGCCUUGGGAGAAGGCGGAAUGCUAC [Xeonanis - 20 Mod7] (Eterna round: R96, puzzle: Same State NG 2) | – | – | – | 17.5 | 22.3 | 29.4
GUAGCAUACCGAGGAUAUUCAUAUUACAUGAGGAUCACCCAUGUUAUAGGCCGAUUACGGCCUUGGGAGAAGGCGGAAUGCUAC [Xeonanis - 20 Mod24] (Eterna round: R96, puzzle: Same State NG 2) | – | – | – | 17.4 | 38.1 | 37.6
GUAGCAUACCGAGGAUAUUCAUAUUAUAAACAUGAGGAUCACCCAUGUGGCCGAUUACGGCCUUGGGAGAAGGCGGAAUGCUAC [Xeonanis - 20 Mod17] (Eterna round: R96, puzzle: Same State NG 2) | – | – | – | 44.6 | 641 | 909
GUAGCAUACCGAGGAUAUUCAUAUUAUAAACAUGAGGAUCACCCAUGUGGUCGAUUACGACCUUGGGAGAAGGCGGAAUGCUAC [Xeonanis - 20 Mod36] (Eterna round: R96, puzzle: Same State NG 2) | – | – | – | 46.4 | 462 | 725
GUAGCAUACCGAGGAUAUUCAUAUUAUACAUGAGGAUCACCCAUGUAAGGUCGAUUACGACCUUGGGAGAAGGCGGAAUGCUAC [Xeonanis - 20 Mod34] (Eterna round: R96, puzzle: Same State NG 2) | – | – | – | 20.3 | 71.9 | 108
GUCAGCGAUUGAGGAUAUCACGUCGAAUAGACGUGAGAAGGCGAUCAUAACAUGAGGAUCACCCAUGUAUUACAUGAAGCUGAC [SSNG1/5-A1] (Eterna round: R96, puzzle: Same State NG 1) | – | – | – | 15.2 | 22.4 | 29.1
